Laboratory results taken from paper PMC6415305 (Molecular cell, 2019).

Target: Recombinant His-tagged S6K1 T389E/S424D/S429D (S6K1*), in vitro translated (human, UniProt P23443-2 1-502, T389E | S424D | S429D)
Experiment: SPR

Chain of Recombinant His-tagged S6K1 T389E/S424D/S429D (S6K1*), in vitro translated (P23443 24-525 T412E/S447D/S452D): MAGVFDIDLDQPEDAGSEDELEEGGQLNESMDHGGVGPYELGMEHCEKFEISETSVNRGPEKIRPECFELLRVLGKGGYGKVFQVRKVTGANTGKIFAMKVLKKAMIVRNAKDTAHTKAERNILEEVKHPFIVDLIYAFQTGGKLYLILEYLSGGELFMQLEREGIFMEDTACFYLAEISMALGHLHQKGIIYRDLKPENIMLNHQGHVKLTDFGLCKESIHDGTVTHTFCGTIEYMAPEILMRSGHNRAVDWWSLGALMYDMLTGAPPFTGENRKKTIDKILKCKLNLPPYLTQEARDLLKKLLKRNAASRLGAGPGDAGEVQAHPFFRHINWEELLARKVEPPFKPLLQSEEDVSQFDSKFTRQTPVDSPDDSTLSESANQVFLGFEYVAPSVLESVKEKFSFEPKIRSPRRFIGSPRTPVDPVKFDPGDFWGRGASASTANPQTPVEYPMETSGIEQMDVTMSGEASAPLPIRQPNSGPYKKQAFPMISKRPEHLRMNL

B1: EPRS linker (Pro683 to Asn1023 of human glutamyl-prolyl tRNA synthetase), His tag removed (domain or fragment, UniProt P07814 683-1023, looked up)
chain: PYEPVSPYSCKEAPCVLIYIPDGHTKEMPTSGSKEKTKVEATKNETSAPFKERPTPSLNNNCTTSEDSLVLYNRVAVQGDVVRELKAKKAPKEDVDAAVKQLLSLKAEYKEKTGQEYKPGNPPAEIGQNISSNSSASILESKSLYDEVAAQGEVVRKLKAEKSPKAKINEAVECLLSLKAQYKEKTGKEYIPGQPPLSQSSDSSPTRNSEPAGLETPEAKVLFDKVASQGEVVRKLKTEKAPKDQVDIAVQELLQLKAQYKSLIGVEYKPVSATGAEDKDKKKKEKENKSEKQNKPQKQNDGQRKDPSKNQGGGLSSSGAGEGQGPKKQTRLGLEAKKEEN
Kd: 56 nM
